Results from patent publication US20090180995A1, “NOVEL ANTICOAGULANT POLYPEPTIDES AND COMPLEX” (National University of Singapore, priority 2005, published 2009).

Tests used:
FVIIa (human) [1] = target: FVIIa (human) (UniProt P08709)
FVIIa (human) [2] = target: FVIIa (human) (UniProt P08709); experiment: cell-based or functional assay
FVIIa-sTF (human) [3] = target: FVIIa-sTF (human) (UniProt P08709); experiment: cell-based or functional assay
FVIIa-sTF (human) [4] = target: FVIIa-sTF (human) (UniProt P08709); experiment: non-competitive inhibition kinetics of FVIIa-sTF amidolytic activity on S-2288

FVIIa (human), sequence (P08709 61-212 limits assumed, chain 1 of 2): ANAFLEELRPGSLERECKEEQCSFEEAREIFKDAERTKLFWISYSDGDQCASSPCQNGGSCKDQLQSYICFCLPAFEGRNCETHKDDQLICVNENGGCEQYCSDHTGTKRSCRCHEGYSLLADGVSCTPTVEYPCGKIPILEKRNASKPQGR
FVIIa (human), sequence (P08709 213-466 limits assumed, chain 2 of 2): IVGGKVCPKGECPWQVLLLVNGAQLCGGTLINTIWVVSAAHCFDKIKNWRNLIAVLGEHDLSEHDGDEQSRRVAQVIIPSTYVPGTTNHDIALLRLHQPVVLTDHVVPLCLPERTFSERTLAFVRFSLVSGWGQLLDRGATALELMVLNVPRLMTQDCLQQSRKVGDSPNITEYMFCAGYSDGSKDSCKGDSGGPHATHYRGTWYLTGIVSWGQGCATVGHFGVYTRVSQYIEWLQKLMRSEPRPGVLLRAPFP
FVIIa-sTF (human), sequence (P08709 61-212 limits assumed, chain 1 of 3): as the sequence (P08709 61-212 limits assumed, chain 1 of 2) above
FVIIa-sTF (human), sequence (P13726 33-251 limits assumed, chain 2 of 3, further chain): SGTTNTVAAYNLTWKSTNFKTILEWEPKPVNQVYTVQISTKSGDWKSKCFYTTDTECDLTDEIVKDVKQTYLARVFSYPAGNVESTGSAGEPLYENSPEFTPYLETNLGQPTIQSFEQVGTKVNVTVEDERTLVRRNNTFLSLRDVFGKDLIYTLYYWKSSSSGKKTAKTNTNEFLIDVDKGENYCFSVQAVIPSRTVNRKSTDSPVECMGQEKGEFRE
FVIIa-sTF (human), sequence (P08709 213-466 limits assumed, chain 3 of 3): as the sequence (P08709 213-466 limits assumed, chain 2 of 2) above

B1: hemextin AB complex (protein)
chain 1: LKCKNKLVPFLSKTCPEGKNLCYKMTMLKMPKIPIKRGCTDACPKSSLLVKVVCCNKDKCN
chain 2: LKCKNKVVPFLKCKNKVVPFLCYKMTLKKVPKIPIKRGCTDACPKSSLLVNVMCCKTDKCN
For B1, the Ka (FVIIa (human) [1]) was 411000 M⁻¹, the ΔG (FVIIa (human) [1]) was -7.54 and the ΔH (FVIIa (human) [1]) was -7.93. The ΔS (FVIIa (human) [1]) was -1.25 cal/M, the IC50, inhibition of FVIIa amidolytic activity in the absence of sTF (FVIIa (human) [2]) was 105 nM and the inhibitory potency towards FVIIa relative to plasma kallikrein (FVIIa (human) [2]) was > 50 times. The IC50, inhibition of FVIIa amidolytic activity in the presence of sTF (FVIIa-sTF (human) [3]) was 100 nM and the Ki (FVIIa-sTF (human) [4]) was 25 nM.
